# Source: patent US11116820B2, “Treatment of hyperinsulinemic hypoglycemia with exendin-4 derivatives” (priority 2016, dated 2021)
# Columns and labels:
# mouse GLP-1 receptor [1] = target: T1, mouse GLP-1 receptor (Mus musculus, UniProt O35659); assay: cAMP functional assay (HTRF), agonist mode, in βTC6 cells; assay type: cell-based; conditions: peptides dissolved at 10 mM in PBS, 10 minutes at room temperature
# T1 construct: cells that endogenously express the mouse GLP-1 receptor; endogenous in cells; host or cells: βTC6 cells (mouse)
# T1 sequence (O35659 22-463): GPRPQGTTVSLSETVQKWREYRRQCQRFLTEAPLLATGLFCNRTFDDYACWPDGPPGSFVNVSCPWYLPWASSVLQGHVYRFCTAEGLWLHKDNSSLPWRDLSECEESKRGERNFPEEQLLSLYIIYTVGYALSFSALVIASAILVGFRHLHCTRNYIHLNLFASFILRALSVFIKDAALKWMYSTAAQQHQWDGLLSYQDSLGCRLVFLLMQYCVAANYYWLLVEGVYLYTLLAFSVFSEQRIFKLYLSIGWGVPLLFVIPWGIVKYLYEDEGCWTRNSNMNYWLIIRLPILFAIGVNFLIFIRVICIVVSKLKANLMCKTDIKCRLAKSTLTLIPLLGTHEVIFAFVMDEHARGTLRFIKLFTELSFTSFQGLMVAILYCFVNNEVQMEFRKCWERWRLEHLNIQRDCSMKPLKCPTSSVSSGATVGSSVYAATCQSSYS
# Description: The agonistic and antagonistic effects of each of the four peptides on the receptor GLP-1 was tested in βTC6 cells, which are cells that endogenously express the mouse GLP-1 receptor, in a cAMP functional assay. […] Following the incubation period, the resulting intracellular level of cAMP was measured by homogenous time resolved fluorescence (HTRF).
# mouse GLP-1 receptor [2] = target: T1, mouse GLP-1 receptor; assay: cAMP functional assay (HTRF), antagonist mode, βTC6 cells stimulated with 0.3 nM GLP-1 (7-37); assay type: cell-based; conditions: 10 minutes at room temperature
# Description: The agonistic and antagonistic effects of each of the four peptides on the receptor GLP-1 was tested in βTC6 cells, which are cells that endogenously express the mouse GLP-1 receptor, in a cAMP functional assay.
# Following the incubation period, the resulting intracellular level of cAMP was measured by HTRF.
substance,measurement,setting,value
"pegylated exendin(9-39): pegylated form of exendin(9-39), tested as comparator peptide",agonistic activity on GLP-1 receptor (intracellular cAMP),mouse GLP-1 receptor [1],None of the four peptides exhibited agonistic activity
same,"antagonistic activity on GLP-1 receptor, overall (in words)",mouse GLP-1 receptor [2],did not exhibit significant antagonistic activity
